Data published in patent publication US20200264197A1 (FRAUNHOFER GESELLSCHAFT ZUR F RDERUNG DER ANGEWANDTEN …, published 2020).
Each block holds one binder with its values, some of them ahead of it. Numbered stars: 1 amine (or outer) side, 2 acyl side, 3 side chain; on linkers, the order of the positions; unused ones are H or OH. Square brackets hold non-standard residues; d marks the D form. Ends that are not written are not given here. βAsp = O=C(O)[C@H](CC(=O)[*:2])N[*:1]; pGlu = O=C1CC[C@@H](C(=O)O)N1

Tests used:
[1] = biological target: T1, Aβ(1-40); test: SPR, antibody captured on goat anti-mouse IgG, peptide as analyte
T1 construct: Synthetic peptide; also called wildtype Aβ(1-40)
T1 sequence (peptide, as listed by the source): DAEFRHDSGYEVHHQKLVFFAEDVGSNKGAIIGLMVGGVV
Excerpt: (§1) In order to bind analyzing antibodies K11 and K119 to a CMS sensor Chip (GE Healthcare, Product code BR100012), approximately 15,000-20,000 RU of goat anti mouse IgG (Thermo Fisher Scientific, PA1 28555) were immobilized first. To immobilize the anti-mouse IgG, the carboxymethylated dextran surface of the sensor chip was activated by mixing 0.1 M N-hydroxysuccinimide (NHS) with 0.4 M N-ethyl-N′-(dimethylaminopropyl)carbodiimide hydrochloride (EDC) 1:1. EDC/NHS was applied to the sensor chip for 10 minutes with a flow rate of 10 μl/min. Goat anti mouse IgG was diluted to 50 μg/ml in 10 mM Sodium acetate, pH 5.5 and injected for 2×3 minutes with a flow rate of 10 μl/min. After deactivation with 1 M ethanolamine, pH 8.5 for 2×7 minutes with a flow rate of 10 μl/min, 0.1 M glycine, pH 1.7 was applied to the sensor chip with a flow rate of 30 μl/min for 3 minutes, followed by a washing step with HBS-EP buffer (GE Healthcare, Product code BR100188).
(§2) Binding of about 2,000 RU anti isoAsp7-Aβ antibodies occurred with a flow rate of 10 μl/min. To achieve this, antibodies were diluted to 25 μg/ml in HBS-EP buffer and applied to the sensor chip, followed by washing with HBS-EP until the RU signal remains constant.
(§3) Kinetic constants were determined by applying Aβ peptides at different concentrations and calculated from the combined set of data by using BIAevaluation software (Biacore AB) (FIG. 2A and FIG. 3).

[2] = biological target: T2, pE3-Aβ(3-18); test: as above
T2 peptide: [pGlu]FRHDSGYEVHHQKLV
Excerpt: as §1, §2, §3

[3] = biological target: T3, pE3-isoD7-Aβ(3-18); test: as above
T3 peptide: [pGlu]FRH[βAsp]SGYEVHHQKLV
Excerpt: as §1, §2, §3

[4] = biological target: T4, Mouse isoD7-Aβ(1-18) (mouse); test: as above
T4 peptide: DAEFGH[βAsp]SGFEVRHQKLV
Excerpt: as §1, §2, §3

[5] = biological target: T5, isoD7-Aβ(1-40) (isoAsp at position 7); test: as above
T5 construct: Synthetic peptide
T5 sequence (peptide, as listed by the source): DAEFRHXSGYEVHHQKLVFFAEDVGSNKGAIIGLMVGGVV
Excerpt: as §1, §2, §3

[6] = biological target: T6, isod7-Aβ(1-17) (human, D-isoaspartate at position 7); test: SPR, antibody captured on goat anti-mouse IgG, peptide as analyte; SPR
T6 construct: also called D-isoaspartate isomer containing peptide derivative
T6 peptide: DAEFRHXSGYEVHHQKL
Procedure: (§4) FIG. 2: Determination of binding constants of immobilized K11 with different Aβ-peptides by SPR analysis. 1,500-2,000 RU of antibody K11 were immobilized on a CMS chip by binding to goat anti mouse IgG. Monomeric Aβ peptides were injected in varying concentrations. KD values were calculated by using single-cycle kinetic analysis of BIAevaluation software. A—isoD7-Aβ(1-18) was applied at 1 nM, 3 nM, 9 nM, 27 nM, 81 nM and 243 nM. B—isod7-Aβ(1-17) was applied at 1 nM, 3 nM, 9 nM, 27 nM, 81 nM and 243 nM. C—Aβ(1-18) was applied at […], 30 nM, 90 nM, 270 nM, 810 nM and 2430 nM.
as §1, with “After deactivation with 1 M ethanolamine, pH 8.5 for 2×7 minutes with a flow rate of 10 μl/min, 0.1 M glycine, pH 1.7 was applied to the sensor chip with a flow rate of 30 μl/min for 3 minutes, followed by a washing step with HBS-EP buffer (GE Healthcare, Product code BR100188).” left out

[7] = biological target: T7, Aβ(1-18) (human); test: as above
T7 construct: also called wildtype peptide Aβ(1-18)
T7 peptide: DAEFRHDSGYEVHHQKLV
Procedure: as §4
as §1, with “After deactivation with 1 M ethanolamine, pH 8.5 for 2×7 minutes with a flow rate of 10 μl/min, 0.1 M glycine, pH 1.7 was applied to the sensor chip with a flow rate of 30 μl/min for 3 minutes, followed by a washing step with HBS-EP buffer (GE Healthcare, Product code BR100188).” left out

[8] = biological target: T8, Aβ(1-30); test: sandwich ELISA: K11 immobilised at 2 µg/ml as capture, peptide serially diluted, HRP-conjugated 4G8 as detection, absorbance 450/540 nm
T8 construct: also called non-modified Aβ peptide
T8 sequence (peptide, as listed by the source): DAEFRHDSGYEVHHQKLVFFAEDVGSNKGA
Procedure: FIG. 8: Sandwich ELISA for quantification of isoAsp7-Aβ and total Aβ concentrations in biological samples. Capture antibodies K11 (A) and 3D6 (B) were diluted to 2 μg/ml and immobilized on microtiter plates overnight at 4° C. Blocking occurred for 2 hours at room temperature. isoD7-Aβ(1-30) (SEQ ID NO: 51) and Aβ(1-30) (SEQ ID NO: 52) were serially diluted and added to the wells in duplicate. After an incubation period of 2 hours at 4° C., plates were washed six times with TBS-T. HRP-conjugated anti Aβ antibody clone 4G8 was added in a final concentration of 1 μg/ml and incubated for 1 hour at 4° C. After washing with TBS-T, a color reaction with TMB was performed and stopped by the addition of 1.2 N H₂SO₄. The standard curve was calculated from measured absorption at 450/540 nm by a 4-Parameter-Logistic-Fit: y=(A2+(A1−A2)/(1+(x/x₀)\hat{ }p).
In order to determine the amounts of isoD7-Aβ in biological samples, an indirect Sandwich ELISA was established. Therefore, K11 was diluted in PBS to 2μg/ml and immobilized on polystyrene 96-well microtiter plates overnight at 4° C. Blocking occurred for 2 hours at 4° C. with ELISA Blocker (Thermo Fisher Scientific). […] Absorption at 450/540 nm was determined by a Tecan Sunrise plate reader. The standard curve was calculated from measured absorption by a 4-Parameter-Logistic-Fit: y=(A2+(A1−A2)/(1+(x/x0)\hat{ }p).

[9] = biological target: T7, Aβ(1-18); test: SPR, antibody captured on goat anti-mouse IgG, peptide as analyte; SPR; very weak, KD 931,000 nM
Excerpt: as §1
Binding of about 2,000 RU anti isoAsp7-Aβ antibodies occurred with a flow rate of 10 μl/min. […]
as §3

Kd [1]: 1.67 µM
Kd [2]: 0.402 µM
Kd [3]: 0.0017 µM
Kd [4]: 0.153 µM
Kd [5]: 0.0035 µM
Kd [6]: 2.69 µM
Kd [7]: 2.7 µM
binding result [8]: no binding (tested: 140 pg/ml)
B1: monoclonal antibody K11 (antibody, mouse IgG1, kappa, V domains shown)
VH: QVQLKESGPGLVAPSQSLSITCTVSGFSLTSYGVHWVRQPPGKGLEWLGALWASGNTDYSSTLMSRLSISKDNSKSQVFLKMNSLQTDDTAMYYCARDRGILTGGYFDVWGAGTTVTVSS
VL: DIVMSQSPTSLAVSAGEKVTMSCKSSQSLLNSRNRKNYLAWYQQKPGQSPKLLIYWASTRDSGVPDRFTGSGSGTDFTLTISSVQAEDLAVYYCKQSYNLRTFGGGTKLEIKR
notes: Mouse monoclonal antibody from a hybridoma; also called clone K11; anti isoAsp7-Aβ antibody K11

Kd [9]: 931 µM
B2: monoclonal antibody K119 (antibody, mouse IgG2a, kappa, V domains shown)
VH: EVKLVESGGGLVQPGGSLRLSCATSGFTFTDYYMSWVRQPPGKALEWLGFIRNKANGYTTEYSASVKGRFTISRDNSQSILYLQMNTLRTEDSATYYCTRDIPTIMDYWGQGTSVTVSS
VL: DIVMSQSPSSLAVSAGEKATMSCKSSQSLFNSRTRKNYVAWLQQKPGQSPKLLISWASTRESGVPDRFTGSGSGTDFALTITNVQAEDLAVYYCKQSYNLRAFGGGTKLEITR
notes: Mouse monoclonal antibody from a hybridoma
